In the supplement of paper PMC9170038:

Tests used:
MS2 coat protein [1] = assay: apparent KD of MS2 coat protein, switch OFF state (with FMN for OFF switches, without FMN for ON switches); designed switch direction (-1 OFF switch, 1 ON switch): 1; higher = weaker reporter binding; settings: FMN input: 0 or 200 uM; Eterna round: R93 (includes R88 designs)
Method in brief: (§1)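 Titration buffer: 100 mM Tris-HCl pH 7.5, 80 mM KCl, 4 mM MgCl2, without or with constant ligand. Designed RNA switches transcribed on-chip from Illumina sequencing clusters received SNAP-549-labelled MS2 coat protein in twofold steps from 0.7 or 1.5 nM to 3 µM. Apparent KD is the median per design of fits to normalised cluster binding curves.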

MS2 coat protein [2] = assay: apparent KD of MS2 coat protein, switch ON state; designed switch direction (-1 OFF switch, 1 ON switch): 1; higher = weaker reporter binding; settings: FMN input: 0 or 200 uM; Eterna round: R93 (includes R88 designs)
Method in brief: as §1

Sequence | apparent KD of MS2 coat protein (MS2 coat protein [1]) [nM] | apparent KD of MS2 coat protein (MS2 coat protein [2]) [nM]
CAGAUACAUGAGGAUCACCCAUGUUAGGUAGAACAAGGAUAUCUAGAUAGAUAAAAAUAUAGAGAAGGUGUAUAAC [JR_SS001_Sub207] | 24.2 | 19.8
AAACCACAUGAGGAUCACCCAUGUGAAAUACAUACAGGAUAUGCGAAAAGAAACAAAGAAGCAGAAGGGUGAAAAA [75%, Ex sub1, 18] | 25.4 | 15.9
AAAACACAUGAGGAUCACCCAUGUAAAAACAUGAGAGGAUAUGCUUGGAAAACAUGCUAUGCAGAAGGCUCAAGUG [SS1 - 9] | 30.1 | 18.2
AGGAAACAUGAGGAUCACCCAUGUAAAAAUAUGGAAGGAUAUGGAAACACGAAAGUGAAACCAGAAGGUCUGAAAA [77%, Mat - Mod of Eli, 20] | 23.3 | 16.6
AAACCACAUGAGGAUCACCCAUGUGAAAAAAACAUAGGAUAUGGAAACACGAAAGUGAAACCAGAAGGGUGAAAAA [77%, Mat - Mod of Eli, 27] | 23.8 | 24.3
UGAAGACAUGAGGAUCACCCAUGUGGGAAUAUGGGAGGAUAUACAAAGACGAGAGUCAGAGUAGAAGGCCUAGGAC [salish99-ss1-98] | 133 | 47.9
AAAUAAAGGACUGAGGAUAUACCACAUGAAACAUGAGGAUCACCCAUGUAGAAAUACAAAGGGUGGUAGAAGGCAGUCCACAAAC [Same State 2.5g ( so lets mod hyphema)] | 25.5 | 15
AAUGAACAUGAGGAUCACCCAUGUUCUAAUAGUUGAGGAUAUAUGGGUGAAAAUAGCACGGUAGAAGGCGAGUGUA [SameState1 Malc#18] | 104 | 249
AGAUCUAGAAGGUAGGAUAUGUGUAAAAAUACAUGAGGAUCACCCAUGUGAUGAAUAAAAAGAAAAUAGAAGGACCAUCUAGAUC [Cross swing 3] | 119 | 16.8
CGCAAACAUGAGGAUCACCCAUGUCAUUGUGAUCAAGGAUAUGGGUUCCGAAGUGGAACACCAGAAGGUGAGUAGU [Sozaer] | 497 | 224
AAGAAACAUGAGGAUCACCCAUGUGAAAGAAACACAGGAUAUGCGAAAAGAAACAAAGAAGCAGAAGGGUGAAGAA [Mat - Same State 1 - Tesla mod - 58] | 39.2 | 22.6
AAGGAACAUGAGGAUCACCCAUGUAAAAAAUAUGGAGGAUAUACUAGAAGAAACAAAAUAGUAGAAGGCCAAAAAA [75%, Ex sub1, 30] | 20.6 | 16.5
CGCGAACAUGAGGAUCACCCAUGUAGCGGGAAACAAGGAUAUGGGAGGCGAAAUCGCGGAUCAGAAGGUGUAAGCG [Laaratat] | 12.4 | 14.7
AAAAAACAUGAGGAUCACCCAUGUAAAAAAAUCACAGGAUAUAAGGUCGCGAAAGCGACCUUAGAAGGGUGAUCAA | 421 | 58.8
AAACAAACAACGCAGGAUAUGCAAAAACCCACAUGAGGAUCACCCAUGUCCCAACAACAAACAAAGCAGAAGGGCGAACAAACAAA [High Roller1] | 86.8 | 37.3
AGGAAACAUGAGGAUCACCCAUGUAAAAUAAUGGGAGGAUAUGCGAAAAGAAAAAGAAAAGCAGAAGGCCUAAGAA [62%, Something completely different, 4] | 98.6 | 18.6
CGAAGACAUGAGGAUCACCCAUGUGGGAUUAUGGGAGGAUAUACAAAGACGAGAGUCAGAGUAGAAGGCCUAGGAC [salish99-ss1-127(!)] | 33.4 | 26
AUAAAAGAAAGGCAGGAUAUCCAAAGAAAAACAUGAGGAUCACCCAUGUAAAGAAAGAAAAAGUGGGAGAAGGGCCAAAAGAAUA [73%, More Fisker Same State 2, D3, 3] | 27.6 | 25.3
AAGAAACAUGAGGAUCACCCAUGUAGAAAUAUGGGAGGAUAUACGAGGACGAAAGUCAAAGUAGAAGGCCUAAGAA [Mat - Same State 1 - Meechl mod - D130] | 66.9 | 19.6
CGGAAGGAGAGAGAGGAUAUCCAAAGGAAAACAUGAGGAUCACCCAUGUAGAAGGUAGGAAAUUGGGAGAAGGCUCAAGAGAGUG [salish99-ss2-121] | 44.6 | 30.2
AUAUAUAUAAGGUAGGAUAUACUAAAGUAAACAUGAGGAUCACCCAUGUAAAGAAAGAAACUCAUGUAGAAGGACCAUAUAUAUAU [Ex 6 sub 1] | 163 | 24.8

Sequence | apparent KD of MS2 coat protein (MS2 coat protein [1]) [nM] | apparent KD of MS2 coat protein (MS2 coat protein [2]) [nM]
GAAAAACAUGAGGAUCACCCAUGUAGAAAUAUGGGAGGAUAUACAAAGACGAAAGUCAAAGUAGAAGGCCUGAAGA [Mat - Same State 1 - JL mod - D91] | 73.1 | 27.1
CGCCAAUUGGCACAGGAUAUGAGCAUGCUCACAUGAGGAUCACCCAUGUGAUUAACAACGCAAUAUCAGAAGGGUGCCCUCAUCA [Leonon] | 33.1 | 50.3
AUAUAUAUAAGGUAGGAUAUUCUAAAGUAAACAUGAGGAUCACCCAUGUAAAGAAAGAAACUCAUGGAGAAGGACCAUAUAUAUA [Modifying Tesla's highscorer (77%) - Adding G segment] | 84.8 | 19.9
AAAAGACAUGAGGAUCACCCAUGUAAAGACAUAGGAGGAUAUGUCUGGAAAAAAGACUGGACAGAAGGCCUUUGUC [SS1 - 62] | 20.4 | 20
AAGAAACAUGAGGAUCACCCAUGUAAGAUAAACACAGGAUAUGCGAAAAGAAAUAAAGAAGCAGAAGGGUGAAGAA [Mat - Same State 1 - Tesla mod - 63] | 54.3 | 21.7
GGCAGGAAGAGAGAGGAUAUCCAAAGGAAAACAUGAGGAUCACCCAUGUAAAAGGUAGGAAAUUGGGAGAAGGCUCAAGAGAGAG [salish99-ss2-099] | 35.4 | 30.9
CGAAAGGAGAGAGAGGAUAUCCAAAGGAAAACAUGAGGAUCACCCAUGUAGAAGGUAGGAGAUUGGGAGAAGGCUCAAGCAAAAC [salish99-ss2-157] | 18.6 | 15.9
AAAAAACAUGAGGAUCACCCAUGUGAGAACAUGGGAGGAUAUACGAGGACGAGAGUCAAGGUAGAAGGCCUAAGAA [Garnet 68] | 22.8 | 268
CGGAGACAUGAGGAUCACCCAUGUGAGAAGAGGCGAGGAUAUCGAAAGAAAGAAGAGAAACGAGAAGGCGCGAGUC [salish99-SS1-078] | 25 | 20.4
UAAAAAAAAAGACAGGAUAUCCAAAAGAAAACAUGAGGAUCACCCAUGUAAAAGAAAAUAAAAUGGGAGAAGGGUCAAAAAAAAU [Mat - Same State 2 - JL mod - D79] | 53.5 | 31
AAUAUAUUAAGUGAGGAUAUCGAGGAAAAAACAUGAGGAUCACCCAUGUGGGUAAAAAAAAAAAGUGAGAAGGUGCUUAAUAUAU [Samwise Clockwise 10 - Jieux - Same State 2] | 128 | 32.3
CAGCGCUGUCGAGAGGAUAUGCGGUGAAGGACAUGAGGAUCACCCAUGUAAGCGAUAGCAUUACGGUAGAAGGCUCUGCAGCUGC [Ceriso] | 143 | 95.7
GGAAGACAUGAGGAUCACCCAUGUGGGAAUAUGGGAGGAUAUACAAAGACGAGAGUCAGAGUAGAAGGCCUAGGAU [salish99-ss1-100] | 138 | 44
AAGAAACAUGAGGAUCACCCAUGUAAGAUAAACACAGGAUAUGCGAAAUAAAUAAAUAAAGCAGAAGGGUGAAGAA [Mat - Same State 1 - Tesla mod - D149] | 19.4 | 6.88
UAAUAAUAAACCAAGGAUAUGGAGUAUAGCACAUGAGGAUCACCCAUGUGUAGCGUGGGUUAGUACCAGAAGGUGGAGUGAAAUG [JR_SS002_Sub1001] | 82.8 | 87.8
AGUCAACAUGAGGAUCACCCAUGUCUGAGGGCAUGAGGAUAUCUAGAUGGGCAGCAUGAUAGAGAAGGCAUGCGCC [Betea] | 199 | 185
GAGAAACAUGAGGAUCACCCAUGUAGAAAUAUGGGAGGAUAUACAAAGACGAAAGUCAAAGUAGAAGGCCUAAAAG [77%, Mat - Mod of Eli - With 1 more G's] | 55.9 | 26
AAAAAACAUGAGGAUCACCCAUGUCUUUUGACAUGAGGAUAUGUACAGACUUCGGUCUGUACAGAAGGCAUAAAAA [SS1 - 1030] | 480 | 109
AUAAAACAUGAGGAUCACCCAUGUAGAAAUAUGGGAGGAUAUACAAGGACGAAAGUCAAGGUAGAAGGCCUAAAAG [Mat - Same State 1 - Meechl mod - D119] | 126 | 25
AAAUAAAUGACUAAGGAUAUUUCAGAGAAAACAUGAGGAUCACCCAUGUAAUAAUAAAAAGGGUGAAAGAAGGUAGUCAACAAAC [74%, More Paria 4] | 41 | 17.1
GAAAAACAUGAGGAUCACCCAUGUGUAAAUAUGGAAGGAUAUACGAAGACGUAAGUCAAAGUAGAAGGUCUAAAAG [Garnet 99] | 24.9 | 19.3
